Assay results reported in US20180141988A1 (Pieris, published 2018).
Changes are numbered by the printed parent chain.

B1: negative control lipocalin (SEQ ID NO: 2) (other)
chain: QDSTSDLIPAPPLSKVPLQQNFQDNQFHGKWYVVGLAGNAILREDKDPQKMYATIYELKEDKSYNVTSVLFRKKKCDYWIRTFVPGSQPGEFTLGNIKSYPGLTSYLVRVVSTNYNQHAMVFFKKVSQNREYFKITLYGRTKELTSELKENFIRFSKSLGLPENHIVFPVPIDQCIDG
B2: lipocalin mutein of SEQ ID NO: 15 (designed binder)
chain: QDSTSDLIPAPPLSKVPLQQNFQDNQFQGKWYVVGRAGNVGLREDKDPPKMRATIYELKEDKSYDVTGVRFGEKKIKYSIGTFVPGSQPGEFTLGQIKSQPGDTANLVRVVSTNYNQHAMVFFKEVYQNREIFFIILYGRTKELTSELKENFIRFSKSLGLPENHIVFPVPIDQAIDGSAWSHPQFEK
notes: hNGAL (Lcn2) mutein; also called optimized GPC3 specific lipocalin mutein
B3: lipocalin mutein of SEQ ID NO: 16 (designed binder)
chain: B2 chain with G72D, E73S, I76V, K77T, Q100E, D103N
notes: as for B2

Experiments:
[1] = target: T1, human GPC3 on stably transfected SK-HEP-1 cells (human, UniProt P51654 25-554); test: MSD-based (ECL) cell binding assay on immobilized SK-HEP-1 cells transfected with human GPC3; detection with rabbit anti-scaffold antibody and Sulfotag-labelled anti-rabbit antibody
T1 construct: whole, on cells; also called SK-HEP-1::human GPC3
Procedure: (§1) Binding of optimized lipocalin muteins of SEQ ID NOs: 5-16 to human, cynomolgus and mouse GPC3 compared to SEQ ID NOs: 3 and 4 was tested on SK-HEP-1 cells using an ECL format (FIG. 1). In this experiment, dilution series of lipocalin muteins were incubated on MSD plates coated with human, cynomolgus or mouse GPC3 overexpressing SK-HEP-1 cells.
(§2) SEQ ID NOs: 3, 4, 5, 7, 8, 9, 10, 12, 13, 14, 15 and 16 (using 1000 nM as starting concentration) were serially diluted at a 1:3 ratio down to the picomolar range in PBS/Casein. 20 μl of the dilution series were transferred to the SK-HEP-1-coated plates for 1 hour at room temperature.
(§3) To allow for detection and quantification of bound GPC3 specific lipocalin muteins, the residual supernatants were discarded and 20 μl of a mixture of rabbit anti scaffold antibody (2 μg/ml) and Sulfotag labelled anti rabbit antibody (5 μg/ml) prepared in PBS/casein was added to the wells and incubated for 1 h at RT. After washing, 35 μl surfactant-free reading buffer was added to each well and the ECL intensity of every well was read using a MSD reader.

[2] = target: T2, mouse GPC3 on stably transfected SK-HEP-1 cells (mouse, UniProt Q8CFZ4 25-553); test: MSD-based (ECL) cell binding assay on transfected SK-HEP-1 cells
T2 construct: whole, on cells; also called SK-HEP-1::mouse GPC3; murine GPC3
Procedure: as §1, §2, §3

[3] = target: T3, cynomolgus GPC3 on stably transfected SK-HEP-1 cells (cynomolgus, UniProt A0A2K5VK50 24-553); test: as above
T3 construct: whole, on cells; also called SK-HEP-1::cyno GPC3; SK-HEP-1::cynomolugus GPC3
Procedure: as §1, §2, §3

[4] = target: T1, human GPC3 on stably transfected …; test: as above
Procedure: as §1, §2, §3

[5] = target: T4, murine GPC3 (6938-GP; R&D systems), biotinylated (murine, UniProt Q8CFZ4 25-558, limits assumed, biotinylated using standard NHS chemistry); test: SPR (Biacore T200), biotinylated GPC3 captured on chip, mutein in flow
T4 construct: Bought protein; also called mouse GPC3
Procedure: (§4) SPR analysis of the binding of the optimized Lcn2 muteins to human and mouse GPC3 was performed at 25° C. on a Biacore T200 instrument (GE Healthcare) using HBS-EP+ (1x; BR-1006-69; GE Healthcare) as running buffer. The Biotin CAPture Kit (GE Healthcare) was used to immobilize biotinylated GPC3 to a chip surface. Human GPC3 (2119-GP; R&D systems) and murine GPC3 (6938-GP; R&D systems) were biotinylated using standard NHS chemistry. Undiluted Biotin CAPture Reagent (streptavidin conjugated with ss-DNA oligo) was captured on a Sensor Chip CAP with the pre-immobilized complementary ss-DNA oligo. Thereafter, biotinylated human or murine GPC3 at 1 μg/ml was applied for 300 s at a flow rate of […].
(§5) Lcn2 muteins were applied in concentrations of 10 nM, 40 nM and 160 nM at a flow rate of 30 μL/min. The dilutions were injected with association times of 180 s and dissociation times of 600 s to obtain ka and kd information. Regeneration of the chip surface was achieved by injecting 6 M Guanidinium-HCl+0.25 M NaOH (120 s) with a flow rate of 10 μL/min. Injection of regeneration solutions was followed by an extra wash step with H₂O and a stabilization period of 120 s.
(§6) The data were double-referenced by subtraction of the corresponding signals measured for the control channel (loaded with Biotin CAPture reagent only) and by subtraction of buffer injections from the binding responses. Association rate constant ka and dissociation rate constant kd for the binding reaction were determined using Biacore T200 Evaluation Software V2.0 for data processing and kinetic fitting. The data were globally fit with 1:1 binding model.

[6] = target: T5, Human GPC3 (2119-GP; R&D systems), biotinylated (human, UniProt P51654 25-559, biotinylated using standard NHS chemistry); test: as above
T5 construct: Bought protein; also called human Glypican-3
Procedure: as §4, §5, §6

T4 sequence (Q8CFZ4 25-558 limits assumed): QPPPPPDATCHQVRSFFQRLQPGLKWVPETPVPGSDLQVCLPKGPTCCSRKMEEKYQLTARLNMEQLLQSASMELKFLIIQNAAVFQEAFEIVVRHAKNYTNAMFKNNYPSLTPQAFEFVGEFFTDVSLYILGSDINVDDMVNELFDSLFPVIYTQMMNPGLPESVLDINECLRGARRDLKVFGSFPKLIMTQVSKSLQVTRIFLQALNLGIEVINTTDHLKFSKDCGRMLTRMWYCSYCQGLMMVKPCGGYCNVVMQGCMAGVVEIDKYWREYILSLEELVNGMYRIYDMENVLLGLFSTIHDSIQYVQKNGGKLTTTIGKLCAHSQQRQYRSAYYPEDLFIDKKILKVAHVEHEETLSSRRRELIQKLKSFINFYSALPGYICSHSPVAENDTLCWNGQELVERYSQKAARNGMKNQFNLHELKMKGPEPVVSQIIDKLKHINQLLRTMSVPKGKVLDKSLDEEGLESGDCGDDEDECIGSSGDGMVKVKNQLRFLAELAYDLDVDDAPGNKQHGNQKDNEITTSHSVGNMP
T5 sequence (P51654 25-559 limits assumed): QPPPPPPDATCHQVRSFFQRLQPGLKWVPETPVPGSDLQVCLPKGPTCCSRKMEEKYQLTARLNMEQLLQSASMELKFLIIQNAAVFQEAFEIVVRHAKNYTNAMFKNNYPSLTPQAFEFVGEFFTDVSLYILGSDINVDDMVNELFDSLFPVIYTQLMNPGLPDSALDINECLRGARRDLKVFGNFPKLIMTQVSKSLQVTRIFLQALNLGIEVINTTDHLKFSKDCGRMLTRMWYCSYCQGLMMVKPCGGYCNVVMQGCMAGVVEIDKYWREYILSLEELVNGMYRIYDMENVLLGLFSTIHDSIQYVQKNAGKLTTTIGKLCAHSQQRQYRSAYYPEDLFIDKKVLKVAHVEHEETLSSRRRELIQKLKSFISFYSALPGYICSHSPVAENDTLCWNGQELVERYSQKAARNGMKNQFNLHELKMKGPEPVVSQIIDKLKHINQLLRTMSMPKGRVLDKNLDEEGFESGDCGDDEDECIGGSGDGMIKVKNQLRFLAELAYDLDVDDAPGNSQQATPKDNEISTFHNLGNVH
T1 sequence (P51654 25-554 limits assumed): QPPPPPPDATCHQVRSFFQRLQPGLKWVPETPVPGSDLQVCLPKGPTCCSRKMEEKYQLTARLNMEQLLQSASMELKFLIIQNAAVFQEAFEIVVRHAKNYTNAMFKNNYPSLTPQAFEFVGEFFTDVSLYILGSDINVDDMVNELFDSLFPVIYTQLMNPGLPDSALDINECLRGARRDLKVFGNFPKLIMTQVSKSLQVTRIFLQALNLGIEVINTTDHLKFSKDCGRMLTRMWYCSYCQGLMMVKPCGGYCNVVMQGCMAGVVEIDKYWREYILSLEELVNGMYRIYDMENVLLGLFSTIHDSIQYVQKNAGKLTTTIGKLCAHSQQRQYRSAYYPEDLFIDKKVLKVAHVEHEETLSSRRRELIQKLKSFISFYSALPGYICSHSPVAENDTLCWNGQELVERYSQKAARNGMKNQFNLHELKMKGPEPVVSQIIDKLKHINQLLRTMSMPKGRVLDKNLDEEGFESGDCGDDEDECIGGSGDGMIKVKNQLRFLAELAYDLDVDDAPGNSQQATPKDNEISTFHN
T2 sequence (Q8CFZ4 25-553 limits assumed): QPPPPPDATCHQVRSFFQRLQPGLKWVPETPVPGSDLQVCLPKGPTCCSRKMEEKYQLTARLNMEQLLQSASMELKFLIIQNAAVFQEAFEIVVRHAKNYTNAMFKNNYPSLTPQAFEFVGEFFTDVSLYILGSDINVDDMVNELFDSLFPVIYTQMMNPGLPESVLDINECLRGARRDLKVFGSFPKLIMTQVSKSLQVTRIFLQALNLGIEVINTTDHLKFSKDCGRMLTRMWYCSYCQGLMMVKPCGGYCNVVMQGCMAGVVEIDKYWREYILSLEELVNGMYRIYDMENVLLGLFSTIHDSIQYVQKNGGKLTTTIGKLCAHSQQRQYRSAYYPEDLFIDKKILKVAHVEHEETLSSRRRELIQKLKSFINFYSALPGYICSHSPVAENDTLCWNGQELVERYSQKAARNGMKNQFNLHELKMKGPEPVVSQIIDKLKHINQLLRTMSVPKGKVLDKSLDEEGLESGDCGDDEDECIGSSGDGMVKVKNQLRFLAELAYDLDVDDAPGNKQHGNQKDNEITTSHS

Row | Binder | binding result [1] | EC50 [2] [nM] | EC50 [3] [nM] | EC50 [4] [nM] | Kd [5] [nM] | koff [5] [s⁻¹] | kon [5] [M⁻¹ s⁻¹] | Kd [6] [nM] | koff [6] [s⁻¹] | kon [6] [M⁻¹ s⁻¹]
1 | B1 | no binding (tested: 1000 nM) |  |  |  |  |  |  |  |  | 
2 | B2 |  | 4.8 | 1.6 | 1.6 | 0.072 | 9.1e-05 | 1.3e+06 | 0.035 | 4.9e-05 | 1.4e+06
3 | B3 |  | 4.4 | 2.5 | 2.2 | 0.311 | 0.00019 | 610000 | 0.171 | 0.00011 | 670000
